The target in experiment [1] is T1, human VEGF-C polypeptide (R&D Systems; Accession # P49767) (human, UniProt P49767 103-227, limits assumed).
T1 construct: Bought protein; also called hVEGF-C; Recombinant VEGF-C protein (R&D Systems)
T1 sequence (looked up): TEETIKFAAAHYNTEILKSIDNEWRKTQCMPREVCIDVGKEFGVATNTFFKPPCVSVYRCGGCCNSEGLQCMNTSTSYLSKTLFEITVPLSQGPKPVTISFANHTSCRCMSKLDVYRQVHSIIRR
Kind of experiment: ELISA on coated human VEGF-C (1 ug/ml), anti-HA-HRP detection; 50% binding concentration, given as Kd. The procedure:
ELISA for verifying the binding affinity of the anti-VEGF-C antibody in scFv form purified in Example 2 to its antigen was carried out. MaxiSorp™ flat-bottom plate (Nunc) of 96-wells was coated with 1 μg/ml of human VEGF-C(R&D Systems) for 16 hours. The plate was then washed 5 times with phosphate buffer saline (PBS) supplemented with 0.05%(v/v) Tween-20, and then blocked with PBS supplemented with 1%(v/v) bovine serum albumin (BSA; Sigma) at room temperature for 2 hours. The anti-VEGF-C antibody in scFv form purified in Example 2 was added to each well of the plate and was incubated at room temperature for 2 hours.
The plate was washed 5 times with PBS supplemented with 0.05% (v/v) Tween-20. HRP-conjugated anti-HA antibody (HA-probe Antibody (F-7) HRP conjugated) (Santacruz) diluted with PBS supplemented with 1%(v/v) BSA was added at the dilution ratio of 1:1,000 (v/v) and was incubated at room temperature for 1 hour. The reacted well was washed 5 times with PBS supplemented with 0.1%(v/v) Tween-20. Finally, tetramethylbenzidine (TMB) substrate (Cell Signal) was added to each well of the plate at the amount of 100 μl to induce coloring reaction at room temperature for 3 minutes. Then, the reaction was stopped with 50 μl of 5N H₂SO₄ solution, and OD450 value was measured on plate reader (Molecular Devices).

The target in experiment [2] is T2, FLAG-tagged human VEGF-C (Accession # P49767) (human, UniProt P49767 112-227, limits assumed).
T2 construct: not shown: FLAG tag
T2 sequence (looked up): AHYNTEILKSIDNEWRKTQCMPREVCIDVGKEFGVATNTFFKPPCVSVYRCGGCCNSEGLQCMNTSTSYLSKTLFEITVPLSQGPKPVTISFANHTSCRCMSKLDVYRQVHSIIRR
Kind of experiment: competitive ELISA: human VEGR-R3-Fc coated, 200 ng/ml FLAG-tagged human VEGF-C plus scFv (1-1000 nM), anti-FLAG-HRP; competitor VEGR-R3-Fc. The procedure:
To examine the effect of the anti-VEGF-C antibody purified in Example 2 on the inhibition of VEGF-C:VEGR-R3 binding, a competitive ELISA, which is used for verification of molecular interaction, was performed. MaxiSorp™ flat-bottom plate (Nunc) of 96-wells was coated with […] of human VEGR-R3-Fc (R&D Systems. Accession No. P35916) which is a fusion protein composed of human VEGR-R3 and Fc of human IgG1. Thereafter, the plate was washed 5 times with phosphate buffer saline (PBS) supplemented with 0.05%(v/v) Tween-20, and then blocked with PBS supplemented with 1%(v/v) bovine serum albumin (BSA; Sigma) at room temperature for 2 hours.
To perform the VEGF-C:VEGR-R3 neutralization ELISA, the anti-VEGF-C antibody (concentration: 1 nM, 10 nM, 100 nM, or 1000 nM) purified in Example 2 was added to each well coated with the human VEGR-R3-Fc, together with a mixture of 1%(v/v) BSA and 200 ng/ml of FLAG-tagged human VEGF-C (Accession # P49767), and incubated at room temperature for 2 hours. Thereafter, the plate was washed 5 times with PBS supplemented with 0.05% (v/v) Tween-20. […] Then, the reaction was stopped by addition of 50 μl of 5N H₂SO₄ solution, and OD450 value was measured using plate reader (Molecular Devices).
(In general: ELISA stands for enzyme-linked immunosorbent assay.)

For experiment [3], the target named is T1, human VEGF-C polypeptide (R&D Systems; …). Kind of experiment: SPR, BIAcore T100; antibody captured on anti-human Fc antibody on a CM5 chip, recombinant VEGF-C flowed from 200 nM. On the procedure:
To accurately measure the affinity of the anti-VEGF-C antibody to its antigen, VEGF-C, Surface Plasmon Resonance (SPR) method was conducted using BIAcore T100 (GE Healthcare). The SPR method is based on a principle that the refractive index of light passing through a sensor chip varied depending on the condition of the substance coated on the sensor chip. If an antibody or an antigen is flowed on the chip which is coated with an antigen or an antibody, the binding between the antigen and the antibody leads to change in refractive index, and Kd value can be calculated based on the refractive index.
25 μg/ml of anti-human Fc antibody (Sigma) was fixed on CM5 sensor chip (GE Healthcare) using pH 5.0 sodium acetate solution and amine coupling kit (GE Healthcare). 2 μg/ml of the anti-VEGF-C antibody obtained in Example 2 was added on the chip to be captured.
Recombinant VEGF-C protein (R&D Systems) was serially diluted with HBS-P (GE-Health) solution starting from the concentration of 200 nM and flowed on the chip, leading to binding (on) to and dissociating (off) from the antibody, thereby measuring the antigen-antibody affinity.
For orientation: Surface plasmon resonance follows binding to a sensor surface in real time, without labels.

Experiment [4] addresses T2, FLAG-tagged human VEGF-C (Accession # …). Kind of experiment: competitive ELISA: human VEGR-R3-Fc coated, 200 ng/ml FLAG-tagged human VEGF-C plus IgG (1-1000 nM), anti-FLAG-HRP; competitor VEGR-R3-Fc. The procedure: MaxiSorp™ flat-bottom plate (Nunc) of 96-wells was coated with […] of human VEGR-R3-Fc (R&D Systems. Accession No. P35916) which is a protein produced by coupling human VEGR-R3 with Fc of human IgG1. Thereafter, the plate was washed 5 times with phosphate buffer saline (PBS) supplemented with 0.05%(v/v) Tween-20, and then blocked with PBS supplemented with 1%(v/v) bovine serum albumin (BSA; Sigma) at room temperature for 2 hours.
For performing the VEGF-R3:VEGF-C neutralization ELISA, the anti-VEGF-C antibody (concentration: 1 nM, 10 nM, 100 nM, or 1000 nM) in IgG form purified in Example 6 was added to each well of the human VEGR-R3-Fc coated plate, together with a mixture of 1%(v/v) BSA and 200 ng/ml of FLAG-tagged human VEGF-C (Accession # P49767), and then, the plate was reacted at room temperature for 2 hours. Thereafter, the plate was washed 5 times with PBS supplemented with 0.05% (v/v) Tween-20. HRP-conjugated anti-FLAG antibody (SIGMA) was diluted with PBS supplemented with 1%(v/v) BSA at the dilution ratio of 1:5,000 (v/v), and added to each well in the amount of 100 μl, to react at room temperature for 1 hour. The reacted well was washed 5 times with PBS supplemented with 0.1%(v/v) Tween-20. […] Then, the reaction was stopped with 50 μl of 5N H₂SO₄ solution, and OD450 value was measured on plate reader (Molecular Devices).

Usually Kd stands for a measure of binding affinity in units of concentration. The IC50 is the concentration that gives 50% inhibition. Usually koff stands for a measure of how fast the partners let go of each other. As usually defined, the kon is a measure of how fast the partners come together.

B1: SAIT-VEGFC-AB-4A2, anti-VEGF-C antibody in scFv form purified in Example 2 (scFv, V domains shown)
VH: EVQLLESGGGLVQPGGSLRLSCAASGFTFSSYDMSWVRQAPGKGLEWVSAISYDNGSTYYADSVKGRFTISRDNSKNTLYLQMNSLRAEDTAVYYCARDPYLARLNTFDYWGQGTLVTVSS
VL: QSVLTQPPSASGTPGQRVTISCSGSSSNIGSNNVSWYQQLPGTAPKLLIYYNSHRPSGVPDRFSGSKSGTSASLAISGLRSEDEADYYCATWDSSLNGYVFGGGTKLTVL
notes: Expressed in the E. coli periplasm and partially purified on Ni-NTA; also called anti-VEGF-C scFv antibody
As for B1, binding in experiment [1] was characterised by a dissociation constant (Kd) of 26.2 nM. Also, the IC50 in experiment [2] turned out to be 33.4 nM. Besides, in experiment [3], the dissociation constant Kd was found to be 0.345 nM, the koff worked out at 0.00258 s⁻¹ and the kon is 7.45e+06 M⁻¹ s⁻¹.

B2: SAIT-VEGFC-AB-4A2, anti-VEGF-C antibody in IgG form purified in Example 6 (antibody, V domains shown)
VH: B1 VH
VL: QSVLTQPPSASGTPGQRVTISCSGSSSNIGSNNVSWYQQLPGTAPKLLIYYNSHRPSGVPDRFSGSKSGTSASLAISGLRSEDEADYYCATWDSSLNGYVFGGGTKLT
notes: VH was cloned into pOPTI-VAC, which carries the human IgG1 constant region and Fc; Expressed in 293-F cells and purified on Protein A
On to B2, for which the IC50 in experiment [4] was 9.2 nM.

These data come from US20150110787A1 (SAMSUNG ELECTRONICS, published 2015).
